Data as given in patent US6111073A, “Tyrosine phosphorylated cleavage furrow-associated proteins (PSTPIPs)” (Genentech, Inc., priority 1998, dated 2000).

Key:
[1] = tested on: tyrosine phosphorylation of endogenous PSTPIP in Baf3 cells; test: Tyrosine phosphorylation of endogenous PSTPIP in Baf3 cells (immunoprecipitation, anti-phosphotyrosine blot); format: cell-based, murine
Protocol: Baf3 cells were Iysed in 1% Triton, 50 mM HEPES, 10% glycerol and 5 mM EDTA containing 1 μg/ml aprotinin, PMSF, leupeptin and pepstatin with 1 mM Sodium Vanadate and 10 mM lodoacetic acid. Cells were treated with 0.1 mM Pervanadate for 4 hours before Iysis. Immunoprecipitations were performed in the vanadate-containing Iysis buffer using 1 μg/ml anti-PSTPIP polyclonal antibody and 400 μg of Iysate protein at 4° C. overnight. Western blots were performed using 1 μg/ml affinity purified anti-PSTPIP or 1:5000 dilution of commercial 4G10 anti-phosphotyrosine monoclonal (Upstate Biotech). Signal was detected by HRPO-ECL reagents (Pierce). The C221 -S mutant was as previously described (Cheng et al., (1996) supra). The PTP HSCF D197 -A mutant was generated using PCR. Mutagenesis primer D197A.F ([…]) (SEQ ID NO:24), corresponding to nucleotide 591, and primer D197A.R ([…]) (SEQ ID NO:25) which corresponds to the stop codon, were used in PCR to generate a fragment that could be cut with Mscl and Xbal. pRK.HA.38 WT, a plasmid which encoded the wild type enzyme under the control of the cytomegalovirus promoter (Cheng et al., (1996) supra), was digested with Clal and Mscl and the resulting 600 bp fragment was ligated with the Mscl-Xbal PCR fragment into the Clal and Xbal sites of pRK.tkneo. […]

[2] = target: in vitro transcribed and translated PSTPIP (murine); test: peptide competition of the pull-down of in vitro translated PSTPIP by GST-PST-rich+CTH PTP HSCF
[3] = target: T1, interaction between PTP HSCF and PSTPIP (Mus musculus, UniProt P97814); test: Peptide inhibition of in vitro binding: GST-PST-rich+CTH PTP HSCF precipitating in vitro translated PSTPIP; set-up: species or system murine; conditions: FIG. 4D
T1 construct: The longest two hybrid clone was used to isolate a full length cDNA from the original Baf3 two hybrid library; made in house; host or cells: PSTPIP: in vitro transcribed/translated (Promega TnT rabbit reticulocyte system); GST-PTP HSCF fusion: E. coli DH5-alpha, pGEX-4T-2
T1 sequence (P97814 1-415): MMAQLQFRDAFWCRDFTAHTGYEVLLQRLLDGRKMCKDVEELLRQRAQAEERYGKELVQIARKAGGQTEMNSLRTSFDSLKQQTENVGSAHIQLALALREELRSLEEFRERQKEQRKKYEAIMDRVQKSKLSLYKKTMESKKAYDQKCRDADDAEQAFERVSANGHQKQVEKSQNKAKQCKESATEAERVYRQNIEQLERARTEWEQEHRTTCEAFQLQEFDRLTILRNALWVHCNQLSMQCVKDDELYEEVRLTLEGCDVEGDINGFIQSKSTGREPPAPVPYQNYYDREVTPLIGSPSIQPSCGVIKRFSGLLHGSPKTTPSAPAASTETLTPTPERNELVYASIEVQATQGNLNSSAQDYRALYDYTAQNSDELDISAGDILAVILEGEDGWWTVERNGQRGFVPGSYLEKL
Protocol: The binding was carried out according to the method of Wong and Johnson (Wong et al., J. Biol. Chem. 271(35):20981-20984 (1996)). Briefly, 1 μg of plasmid with either the PSTPIP protein or PTP HSCF under the control of the Sp6 promoter was in vitro transcribed/translated using the Promega TnT Rabbit Reticulocyte system. Samples were diluted in 50 mM HEPES, pH 7.2, 1% triton X 100, 10% glycerol, 100 mM NaCI, 5 mM EDTA and 2 μg/ml each of leupeptin, pepstatin, aprotinin, and PMSF. […] This was reacted for 1 hour at 4° C. and then the resin washed 6 times in HEPES/Triton binding buffer before SDS gel electrophoresis. The peptides were synthesized on an automated Milligen 9050 Peptide Synthesizer using standard solid phase chemistry with FMOC protected amino acids on a p-alkoxybenzyl alcohol resin. Dried peptides were re-suspended in the HEPES/Triton Binding buffer at a concentration of 10 mg/ml. Peptide inhibition was performed by adding the peptide first to the in vitro translation product and then the GST-fusion followed by the GSH-Sepharose. The binding/washing steps were as previously described. The peptides synthesized and the PTPs they were derived from were: […]

[4] = target: T2, in vitro transcribed and translated PSTPIP (murine); test: peptide competition of the pull-down of in vitro translated PSTPIP by GST-PST-rich+CTH PTP HSCF
T2 chain: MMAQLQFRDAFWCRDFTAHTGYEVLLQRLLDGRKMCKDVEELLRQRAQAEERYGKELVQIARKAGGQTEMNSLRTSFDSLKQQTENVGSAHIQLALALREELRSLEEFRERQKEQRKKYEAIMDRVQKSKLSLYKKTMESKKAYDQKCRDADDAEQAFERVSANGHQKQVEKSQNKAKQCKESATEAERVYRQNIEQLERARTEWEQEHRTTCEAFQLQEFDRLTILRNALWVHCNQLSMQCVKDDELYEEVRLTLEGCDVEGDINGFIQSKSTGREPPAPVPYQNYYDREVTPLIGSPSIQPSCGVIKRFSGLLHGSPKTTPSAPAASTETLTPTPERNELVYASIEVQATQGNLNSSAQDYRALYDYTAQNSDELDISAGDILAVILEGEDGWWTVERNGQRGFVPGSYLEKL

PTP HSCF = test: In vitro binding assay: GST fusion precipitation of in vitro translated PTP HSCF; conditions: GST fusion protein ~1 microgram per ml or ~1.5 micromolar; compared with polyclonal anti-PTP HSCF antibody; FIG. 3
Protocol: The binding was carried out according to the method of Wong and Johnson (Wong et al., J. Biol. Chem. 271(35):20981-20984 (1996)). Briefly, 1 μg of plasmid with either the PSTPIP protein or PTP HSCF under the control of the Sp6 promoter was in vitro transcribed/translated using the Promega TnT Rabbit Reticulocyte system. Samples were diluted in 50 mM HEPES, pH 7.2, 1% triton X 100, 10% glycerol, 100 mM NaCI, 5 mM EDTA and 2 μg/ml each of leupeptin, pepstatin, aprotinin, and PMSF. […] This was reacted for 1 hour at 4° C. and then the resin washed 6 times in HEPES/Triton binding buffer before SDS gel electrophoresis. The peptides were synthesized on an automated Milligen 9050 Peptide Synthesizer using standard solid phase chemistry with FMOC protected amino acids on a p-alkoxybenzyl alcohol resin. Dried peptides were re-suspended in the HEPES/Triton Binding buffer at a concentration of 10 mg/ml. Peptide inhibition was performed by adding the peptide first to the in vitro translation product and then the GST-fusion followed by the GSH-Sepharose. The binding/washing steps were as previously described. The peptides synthesized and the PTPs they were derived from were:
In order to characterize the regions involved with the binding between PTP HSCF and PSTPIP, a rapid and direct in vitro binding assay was performed. […]

For [O]=[V]([O-])([O-])[O-] [vanadate], the “tyrosine phosphorylation of endogenous PSTPIP” value ([1]; with tyrosine phosphatase inhibitor, FIG. 6) was “significantly enhanced”.

In the case of PXXP-PEP peptide (PTP PEP 782-800), the concentration at which the peptide blocks the interaction (as low as) [2] is reported as 800 nM.

For PXXP-HSCF peptide (PTP HSCF 432-451), the concentration at which the peptide blocks the interaction (as low as) [2] was 800 nM.

PXXP-PEST peptide (PTP PEST 761-780) showed a concentration at which the peptide blocks the interaction (as low as) [2] of 800 nM.

In the case of GGVLRSISVPAPPTLPMADT [control peptide], the “ability to block the PTP HSCF-PSTPIP interaction” value [3] is reported as “completely unable to block the interaction”.

pervanadate was tested, and the “phosphotyrosine content of PSTPIP in the absence versus presence of the inhibitor” value ([1]; anti-phosphotyrosine blot, FIG. 6A) was “lower phosphotyrosine content”.

GGVLRSISVPAPPTLPMADT [PXXP-CONTROL peptide (PTP HSCF 334-353)]: no binding [4].

B1: GST PSTPIP: GST fusion protein containing full-length PSTPIP (amino acids 2-415) (protein)
chain: MAQLQFRDAFWCRDFTAHTGYEVLLQRLLDGRKMCKDVEELLRQRAQAEERYGKELVQIARKAGGQTEMNSLRTSFDSLKQQTENVGSAHIQLALALREELRSLEEFRERQKEQRKKYEAIMDRVQKSKLSLYKKTMESKKAYDQKCRDADDAEQAFERVSANGHQKQVEKSQNKAKQCKESATEAERVYRQNIEQLERARTEWEQEHRTTCEAFQLQEFDRLTILRNALWVHCNQLSMQCVKDDELYEEVRLTLEGCDVEGDINGFIQSKSTGREPPAPVPYQNYYDREVTPLIGSPSIQPSCGVIKRFSGLLHGSPKTTPSAPAASTETLTPTPERNELVYASIEVQATQGNLNSSAQDYRALYDYTAQNSDELDISAGDILAVILEGEDGWWTVERNGQRGFVPGSYLEKL
B1 was tested, and the “efficiency of precipitating in vitro translated PTP HSCF” value (PTP HSCF) was “more efficient at precipitating the phosphatase”.
